Earlier results as cited in publication PMC11750407.

Biological target: coagulation factor Xa (Homo sapiens) (UniProt P00742)
Sequence of UniProt P00742 (P00742 41-179, chain 1 of 2): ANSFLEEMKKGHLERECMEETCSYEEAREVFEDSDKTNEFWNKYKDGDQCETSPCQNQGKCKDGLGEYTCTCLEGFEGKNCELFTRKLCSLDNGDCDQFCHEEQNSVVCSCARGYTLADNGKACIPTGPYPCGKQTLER
Sequence of UniProt P00742 (P00742 235-488, chain 2 of 2): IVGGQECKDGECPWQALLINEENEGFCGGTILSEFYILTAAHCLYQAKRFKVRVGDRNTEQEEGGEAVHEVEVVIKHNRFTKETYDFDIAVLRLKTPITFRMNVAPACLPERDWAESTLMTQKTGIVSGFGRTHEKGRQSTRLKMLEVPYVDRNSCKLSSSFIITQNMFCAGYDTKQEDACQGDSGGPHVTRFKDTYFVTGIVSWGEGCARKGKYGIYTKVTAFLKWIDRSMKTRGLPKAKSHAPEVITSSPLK

Q: Which Kd does the source give for “coagulation factor Va (from UniProt P12259)” here?
A: 1 µM
